Measured values: patent US20120316071A1 (published 2012)
Changes are numbered by the printed parent chain. Names and notes keep the numbering of the source.

Legend:
[1] = target: T1, Recombinant Human DLL4 (R&D Systems Cat#1506-D4/CF) (human, UniProt Q9NR61 27-524); test: ELISA and 96-well plate ECL
T1 construct: bought recombinant protein; also called rHuman DLL4; delta-like protein 4

[2] = target: T2, Recombinant Human DLL4 (delta-like protein 4) (human, UniProt Q9NR61 27-524); test: ELISA, Fab on coated recombinant human DLL4, signal minus noise
T2 construct: Bought recombinant human DLL4 (R&D Systems Cat#1506-D4/CF); also called rHuman DLL4; Delta-like 4

[3] = target: T2, Recombinant Human DLL4 (delta-like …); test: ECL (MSD electrochemiluminescence) binding assay, Fab on immobilised recombinant human DLL4
[4] = target: T3, rHuman ErbB2/Fc Chimera, CF (R&D Systems Cat#1129-ER) (human, UniProt P04626 23-652); test: ECL multispot (MSD) binding assay, antigen spotted on plate, Fab 0.04 uM;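 further: purified Fab incubated 1 h at 20 °C on antigen spots, detected via TAG-labelled antibody, ECL read against each well's blank, with signal-to-blank of at least 4 scored as binder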
T3 construct: Bought recombinant protein; also called human epidermal growth factor 2 receptor; Fc part of the bought chimera not given

[5] = target: T4, rHuman EGF R/Fc Chimera, CF (R&D Systems Cat#344-ER) (human, UniProt P00533 25-645); test: as above
T4 construct: Bought recombinant protein; also called epidermal growth factor receptor; Fc part of the bought chimera not given

[6] = target: T5, rHuman HGF R/c-MET/Fc Chimera, CF (R&D Systems Cat#358-MT/CF) (human, UniProt P08581 25-932); test: as above
T5 construct: Bought recombinant protein; also called HGF R/Fc; hepatocyte growth factor receptor; Fc part of the bought chimera not given
T5 sequence (P08581 25-932, change not shown): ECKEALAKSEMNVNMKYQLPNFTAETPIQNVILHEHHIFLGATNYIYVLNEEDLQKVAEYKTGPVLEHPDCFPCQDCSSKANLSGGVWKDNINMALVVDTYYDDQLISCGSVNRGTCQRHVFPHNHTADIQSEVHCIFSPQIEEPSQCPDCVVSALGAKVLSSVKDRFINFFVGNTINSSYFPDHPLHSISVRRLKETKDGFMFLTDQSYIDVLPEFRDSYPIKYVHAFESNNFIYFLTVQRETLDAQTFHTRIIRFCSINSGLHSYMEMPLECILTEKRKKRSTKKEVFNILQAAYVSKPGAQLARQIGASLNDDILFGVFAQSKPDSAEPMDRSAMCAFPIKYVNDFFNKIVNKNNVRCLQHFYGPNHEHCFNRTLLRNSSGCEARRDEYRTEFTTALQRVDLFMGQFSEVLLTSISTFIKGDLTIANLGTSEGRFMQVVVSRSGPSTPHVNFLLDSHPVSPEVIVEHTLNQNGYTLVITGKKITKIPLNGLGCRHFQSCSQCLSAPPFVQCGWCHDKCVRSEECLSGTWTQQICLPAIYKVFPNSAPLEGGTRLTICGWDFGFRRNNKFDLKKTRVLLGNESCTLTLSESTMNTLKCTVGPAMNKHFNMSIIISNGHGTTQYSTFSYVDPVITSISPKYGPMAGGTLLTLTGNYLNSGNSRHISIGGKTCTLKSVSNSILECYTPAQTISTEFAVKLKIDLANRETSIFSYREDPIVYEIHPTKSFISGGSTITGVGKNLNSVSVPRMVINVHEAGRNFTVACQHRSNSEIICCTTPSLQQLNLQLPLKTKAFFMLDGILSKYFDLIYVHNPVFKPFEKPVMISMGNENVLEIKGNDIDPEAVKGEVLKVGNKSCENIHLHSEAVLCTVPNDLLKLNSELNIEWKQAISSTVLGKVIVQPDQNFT

[7] = target: T6, rHuman Notch-1/Fc Chimera, CF (R&D Systems Cat#3647-TK) (human, UniProt P46531 19-526); test: as above
T6 construct: Bought recombinant protein; Fc part of the bought chimera not given

[8] = target: T7, rHuman CD44/Fc Chimera, CF (R&D Systems Cat#3660-CD) (human, UniProt P16070 21-220); test: as above
T7 construct: Bought recombinant protein; Fc part of the bought chimera not given

[9] = target: T8, rHuman P-Cadherin/Fc Chimera, CF (R&D Systems Cat#861-PC) (human, UniProt P22223 108-654); test: as above
T8 construct: Bought recombinant protein; Fc part of the bought chimera not given

[10] = target: T9, rHuman Erythropoietin R/Fc Chimera, CF (R&D Systems Cat#963-ER) (human, UniProt P19235 25-250); test: as above
T9 construct: Bought recombinant protein; also called EPO R; EPO R/Fc; Fc part of the bought chimera not given
T9 sequence (looked up): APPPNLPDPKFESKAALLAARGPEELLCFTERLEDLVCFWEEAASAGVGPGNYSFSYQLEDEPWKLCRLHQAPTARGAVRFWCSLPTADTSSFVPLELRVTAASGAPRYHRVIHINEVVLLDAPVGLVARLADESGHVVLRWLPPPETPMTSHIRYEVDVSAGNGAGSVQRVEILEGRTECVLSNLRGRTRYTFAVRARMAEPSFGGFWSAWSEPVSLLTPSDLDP

[11] = target: T10, Recombinant Human DLL4 (R&D Systems Cat#1506-D4/CF) (human, UniProt Q9NR61 27-524); test: as above
T10 construct: Bought recombinant protein; also called delta-like protein 4; rHuman DLL4

[12] = target: T11, Recombinant Human DLL4 (delta-like protein 4) (human, UniProt Q9NR61 27-524); test: ELISA, Fab on plate-coated recombinant human DLL4
T11 construct: also called rHuman DLL4; Delta-like 4

[13] = target: T12, Recombinant Human DLL4 (delta-like protein 4) (human, UniProt Q9NR61 27-524); test: SPR, Fab on recombinant human DLL4
T12 construct: Bought recombinant protein; also called rHuman DLL4; Delta-like 4

[14] = target: T12, Recombinant Human DLL4 (delta-like …); test: SPR, Fab on recombinant human DLL4; column head x10^5 applied
[15] = target: T12, Recombinant Human DLL4 (delta-like …); test: SPR, Fab on recombinant human DLL4; column head x10^-3 applied
[16] = target: T13, rHuman Erythropoietin R/Fc Chimera, CF (human, UniProt P19235 25-250); test: ECL multispot (MSD) binding assay, antigen spotted on plate, 100 nM Fab
T13 construct: Bought protein; also called EPO R; EPO R/Fc; Fc part of the bought chimera not given
T13 sequence (looked up): T9 sequence (looked up)

[17] = target: T14, rHuman ErbB2/Fc Chimera, CF (human, UniProt P04626 23-652); test: as above
T14 construct: Bought protein; also called human epidermal growth factor 2 receptor; Fc part of the bought chimera not given

[18] = target: T15, rHuman EGF R/Fc Chimera, CF (human, UniProt P00533 25-645); test: as above
T15 construct: Bought protein; also called epidermal growth factor receptor; Fc part of the bought chimera not given

[19] = target: T16, rHuman Notch-1/Fc Chimera, CF (human, UniProt P46531 19-526); test: as above
T16 construct: Bought protein; Fc part of the bought chimera not given

[20] = target: T17, rHuman CD44/Fc Chimera, CF (human, UniProt P16070 21-220); test: as above
T17 construct: Bought protein; Fc part of the bought chimera not given

[21] = target: T18, rHuman IGF-1 sR, (IGF-1 sR), CF (human, UniProt P08069 31-932); test: as above
T18 construct: The column head prints 'IGF-1'; The antigen panel of the assay holds the soluble IGF-1 receptor, not the ligand; also called insulin-like growth factor-1 soluble receptor

[22] = target: T19, rHuman P-Cadherin/Fc Chimera, CF (human, UniProt P22223 108-654); test: as above
T19 construct: Bought protein; Fc part of the bought chimera not given

B1: Fab VH1-46_IGHD6-6*01_IGHJ1*01 S102A/S103P/S104F/H111F (H:APFF) & L6_IGKJ1*01 S28N/S30D/S31H (L:NDH) (Fab, V domains shown)
VH: QVQLVQSGAEVKKPGASVKVSCKASGYTFTSYYMHWVRQAPGQGLEWMGIINPSGGSTSYAQKFQGRVTMTRDTSTSTVYMELSSLRSEDTAVYYCAREEYAPFSAEYFQFWGQGTLVTVSS
VL: EIVLTQSPATLSLSPGERATLSCRASQNVDHYLAWYQQKPGQAPRLLIYDASNRATGIPARFSGSGSGTDFTLTISSLEPEDFAVYYCQQRSNWPPWTFGQGTKVEIKR
notes: Fab; also called H:APFF & L:NDH; APFF-NDH
- fold affinity against the parent antibody APFF mutant [1]: 4 fold

B2: Fab VH1-46_IGHD6-6*01_IGHJ1*01 S102A/S103P/S104F/H111F/G56A (H:APFF G56A) & L6_IGKJ1*01 S28N/S30D/S31H (L:NDH) (Fab, V domains shown)
VH: B1 VH with G56A
VL: B1 VL
notes: Fab; also called H:APFF G56A & L:NDH
- fold affinity against the H:APFF & L:wt parental antibody mutant [1]: 8 fold

B3: Fab VH5-51_IGHD5-18*01>3_IGHJ4*01 G100K/G104T/S56G & V3-4_IGLJ1*01 (Fab, V domains shown)
VH: EVQLVQSGAEVKKPGESLKISCKGSGYSFTSYWIGWVRQMPGKGLEWMGIIYPGDGDTRYSPSFQGQVTISADKSISTAYLQWSSLKASDTAMYYCARRKYSYTYDYFDYWGQGTLVTVSS
VL: QTVVTQEPSFSVSPGGTVTLTCGLSSGSVSTSYYPSWYQQTPGQAPRTLIYSTNTRSSGVPDRFSGSILGNKAALTITGAQADDESDYYCVLYMGSGISYVFGTGTKVTVL
notes: Fab expressed in E. coli: VH joined to CH1 (Plasmid A, His6 and Flag tags), VL joined to lambda CL (Plasmid E); also called H:KT S56G
- ELISA (Signal-Noise) [2]: 0.05
- ECL signal [3]: 8430

B4: Fab VH5-51_IGHD5-18*01>3_IGHJ4*01 G100K/G104T (H:KT) & V3-4_IGLJ1*01 V91A (Fab, V domains shown)
VH: B3 VH with G56S
VL: B3 VL with V91A
notes: Fab; Expressed from Plasmid A (CH1, His6 and Flag tags) and Plasmid E (lambda CL); also called KT & V91A
- ECL signal [4]: 1120
- ECL signal [5]: 833
- ECL signal [6]: 1110
- ECL signal [7]: 682
- ECL signal [8]: 632
- ECL signal [9]: 484
- ECL signal [10]: 675
- ECL signal [11]: 33400

B5: Fab VH5-51_IGHD5-18*01>3_IGHJ4*01 G100K/G104T (H:KT) & V3-4_IGLJ1*01 G23L (Fab, V domains shown)
VH: B3 VH with G56S
VL: B3 VL with G23L
notes: Fab (CH1 with His6/Flag tags from Plasmid A, lambda CL from Plasmid E); also called G100K/G104T & G23L
- ELISA signal [12]: 0.1

B6: Fab VH5-51_IGHD5-18*01>3_IGHJ4*01 G100K/G104T G24T/S28R/G35V & V3-4_IGLJ1*01 V91L/S96P S52G (Fab, V domains shown)
VH: B3 VH with G24T, S28R, G35V, G56S
VL: B3 VL with S52G, V91L, S96P
notes: Fab made in E. coli; VH was cloned in Plasmid A (CH1, His6 and Flag tags) and VL in Plasmid E (lambda CL); also called H:KT TRV & L:LP S52G
- Kd [13]: 5 nM
- kon [14]: 2.96e+06 M⁻¹ s⁻¹
- koff [15]: 0.0147 s⁻¹

B7: Fab VH5-51_IGHD5-18*01>3_IGHJ4*01 G100K/G104T G24T/S28R/G35V & V3-4_IGLJ1*01 V91L/S96P (Fab, V domains shown)
VH: B3 VH with G24T, S28R, G35V, G56S
VL: B3 VL with V91L, S96P
notes: Fab made in E. coli; VH was cloned in Plasmid A (CH1, His6 and Flag tags) and VL in Plasmid E (lambda CL); also called H:KT TRV & L:LP
- Kd [13]: 3.3 nM
- kon [14]: 1.1e+07 M⁻¹ s⁻¹
- koff [15]: 0.036 s⁻¹

B8: Fab VH3-23_IGHD2-21*01>3_IGHJ6*01 I107A & V2-13_IGLJ2*01 (Fab, V domains shown)
VH: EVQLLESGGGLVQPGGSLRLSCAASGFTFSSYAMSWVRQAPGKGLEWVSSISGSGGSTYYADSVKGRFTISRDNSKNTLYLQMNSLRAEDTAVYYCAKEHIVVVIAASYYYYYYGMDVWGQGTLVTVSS
VL: SSELTQDPAVSVALGQTVRITCQGDSLRSYYASWYQQKPGQAPVLVIYGKNNRPSGIPDRFSGSSSGNTASLTITGAQAEDEADYYCNSRDSSGNHLVVFGGGTKLTVL
notes: Tested as a Fab made in E. coli
- ECL signal/blank ratio (quantity not given) [16]: 43.6
- ECL signal/blank ratio (quantity not given) [17]: 4.8
- ECL signal/blank ratio (quantity not given) [18]: 4.3
- ECL signal/blank ratio (quantity not given) [19]: 2.7
- ECL signal/blank ratio (quantity not given) [20]: 1.5
- ECL signal/blank ratio (quantity not given) [21]: 1.1
- ECL signal/blank ratio (quantity not given) [22]: 19.6

B9: Fab VH3-23_IGHD2-21*01>3_IGHJ6*01 S108A & V2-13_IGLJ2*01 (Fab, V domains shown)
VH: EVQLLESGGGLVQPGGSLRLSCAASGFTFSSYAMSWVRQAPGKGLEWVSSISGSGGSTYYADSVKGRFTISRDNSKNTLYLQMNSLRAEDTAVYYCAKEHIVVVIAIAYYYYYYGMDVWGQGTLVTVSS
VL: B8 VL
notes: as for B8
- ECL signal/blank ratio (quantity not given) [16]: 9.5
- ECL signal/blank ratio (quantity not given) [17]: 1.9
- ECL signal/blank ratio (quantity not given) [18]: 2
- ECL signal/blank ratio (quantity not given) [19]: 1.5
- ECL signal/blank ratio (quantity not given) [20]: 1.3
- ECL signal/blank ratio (quantity not given) [21]: 1.2
- ECL signal/blank ratio (quantity not given) [22]: 4.8
